Results as given in article PMC7840130 (Science Advances, 2021).
Read-outs that look alike come from different tables or passages of the source.

How the values were obtained:
[1] = target: BcsQ (in the Bcs macrocomplex) (E. coli 1094) (UniProt P37655); experiment: cryo-EM structure
BcsQ^His (E. coli 1094) = BcsQ^His (E. coli 1094) (UniProt P37655); experiment: crystal structure
[2] = target: T1, BcsA^HA-FLAG (in the Bcs macrocomplex) (E. coli 1094, UniProt P37653 1-872); experiment: cryo-EM structure
T1 sequence (looked up): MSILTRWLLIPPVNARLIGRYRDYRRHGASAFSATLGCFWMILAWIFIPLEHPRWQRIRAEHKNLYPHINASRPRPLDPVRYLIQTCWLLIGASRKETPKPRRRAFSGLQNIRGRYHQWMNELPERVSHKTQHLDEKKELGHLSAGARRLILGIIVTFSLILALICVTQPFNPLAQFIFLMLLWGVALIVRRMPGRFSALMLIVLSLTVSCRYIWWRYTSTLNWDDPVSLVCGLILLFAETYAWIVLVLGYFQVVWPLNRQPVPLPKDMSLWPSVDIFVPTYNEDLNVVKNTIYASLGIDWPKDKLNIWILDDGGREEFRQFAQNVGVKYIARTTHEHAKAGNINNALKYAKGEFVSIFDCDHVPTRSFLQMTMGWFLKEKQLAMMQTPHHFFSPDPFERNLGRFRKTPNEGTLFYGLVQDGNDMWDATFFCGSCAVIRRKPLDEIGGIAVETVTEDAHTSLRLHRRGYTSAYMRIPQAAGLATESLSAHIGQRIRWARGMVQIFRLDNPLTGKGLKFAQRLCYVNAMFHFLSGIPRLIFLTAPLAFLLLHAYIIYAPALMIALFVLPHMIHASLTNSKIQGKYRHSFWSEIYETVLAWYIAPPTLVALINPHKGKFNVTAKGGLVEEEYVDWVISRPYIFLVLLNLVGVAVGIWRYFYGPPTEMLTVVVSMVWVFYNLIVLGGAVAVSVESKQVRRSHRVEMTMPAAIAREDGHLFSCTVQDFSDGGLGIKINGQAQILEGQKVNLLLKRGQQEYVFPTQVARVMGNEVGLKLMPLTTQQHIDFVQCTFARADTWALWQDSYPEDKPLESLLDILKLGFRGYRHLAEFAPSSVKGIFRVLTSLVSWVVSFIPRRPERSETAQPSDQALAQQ

cryo-EM structure [3] = target: the molecule itself; experiment: cryo-EM structure
cryo-EM structure [4] = target: the molecule itself; experiment: cryo-EM structure; remark: listed apart in the source

With “BcsQ (in the Bcs macrocomplex) (from UniProt P37655 1-242) (natural protein)” the stoichiometry N [1] was 2.

“BcsQ^His (from UniProt P37655 1-242) (natural protein)” was tested, and the stoichiometry N (BcsQ^His (E. coli 1094)) was 2.

B1: BcsB (in the Bcs macrocomplex) (natural protein, E. coli 1094, UniProt P37652 26-779, looked up)
chain: TPATQPLINAEPAVAAQTEQNPQVGQVMPGVQGADAPVVAQNGPSRDVKLTFAQIAPPPGSMVLRGINPNGSIEFGMRSDEVVTKAMLNLEYTPSPSLLPVQSQLKVYLNDELMGVLPVTKEQLGKKTLAQMPINPLFISDFNRVRLEFVGHYQDVCEKPASTTLWLDVGRSSGLDLTYQTLNVKNDLSHFPVPFFDPSDNRTNTLPMVFAGAPDVGLQQASAIVASWFGSRSGWRGQNFPVLYNQLPDRNAIVFATNDKRPDFLRDHPAVKAPVIEMINHPQNPYVKLLVVFGRDDKDLLQAAKGIAQGNILFRGESVVVNEVKPLLPRKPYDAPNWVRTDRPVTFGELKTYEEQLQSSGLEPAAINVSLNLPPDLYLMRSTGIDMDINYRYTMPPVKDSSRMDISLNNQFLQSFNLSSKQEANRLLLRIPVLQGLLDGKTDVSIPALKLGATNQLRFDFEYMNPMPGGSVDNCITFQPVQNHVVIGDDSTIDFSKYYHFIPMPDLRAFANAGFPFSRMADLSQTITVMPKAPNEAQMETLLNTVGFIGAQTGFPAINLTVTDDGSTIQGKDADIMIIGGIPDKLKDDKQIDLLVQATESWVKTPMRQTPFPGIVPDESDRAAETRSTLTSSGAMAAVIGFQSPYNDQRSVIALLADSPRGYEMLNDAVNDSGKRATMFGSVAVIRESGINSLRVGDVYYVGHLPWFERVWYALANHPILLAVLAAISVILLAWVLWRLLRIISRRRLNPDNE
B1 was tested, and the binding result [2] was “binds” and the “stoichiometry N” value (cryo-EM structure [3]) was at most 6.

B2: full-length E. coli BcsB^His (natural protein, E. coli 1094, UniProt P37652 26-779, looked up)
chain: B1 chain
B2 was tested, and the “stoichiometry N” value (cryo-EM structure [4]) was 8.
